Where a chain is given by its changes, count along the chain named. Names may count otherwise.
B1: human IgG2 anti-mouse CD40 surface displayed antibody, Fc mutant P271V (antibody, name in EU numbering)
light chain (with the P2A rest): DTVLTQSPALAVSPGERVTISCRASDSVSTLMHWYQQKPGQQPKLLIYLASHLESGVPARFSGSGSGTDFTLTIDPVEADDTATYYCQQSWNDPWTFGGGTKLELKRTVAAPSVFIFPPSDEQLKSGTASVVCLLNNFYPREAKVQWKVDNALQSGNSQESVTEQDSKDSTYSLSSTLTLSKADYEKHKVYACEVTHQGLSSPVTKSFNRGECGSGATNFSLLKQAGDVEENPG
heavy chain: EVQLVESDGGLVQPGRSLKLPCAASGFTFSDYYMAWVRQAPTKGLEWVASISYDGSSTYYRDSVKGRFTISRDNAKSTLYLQMDSLRSEDTATYYCGRHSSYFDYWGQGVMVTVSSASTKGPSVFPLAPCSRSTSESTAALGCLVKDYFPEPVTVSWNSGALTSGVHTFPAVLQSSGLYSLSSVVTVPSSNFGTQTYTCNVDHKPSNTKVDKTVERKCCVECPPCPAPPVAGPSVFLFPPKPKDTLMISRTPEVTCVVVDVSHEDVEVQFNWYVDGVEVHNAKTKPREEQFNSTFRVVSVLTVVHQDWLNGKEYKCKVSNKGLPAPIEKTISKTKGQPREPQVYTLPPSREEMTKNQVSLTCLVKGFYPSDIAVEWESNGQPENNYKTTPPMLDSDGSFFLYSKLTVDKSRWQQGNVFSCSVMHEALHNHYTQKSLSLSPGKLEPPPSTVSNMATVAVLVVLGAAIVTGAVVAFVMKMRRRNTGGKGGDYALAPGSQTSDLSLPDCKVMVHDPHSLA
notes: as m1; positions are Eu numbers; copies: 2 + 2
B2: human IgG2 anti-mouse CD40 surface displayed antibody, Fc mutant S267N (antibody, name in EU numbering)
light chain (with the P2A rest): B1 light chain (with the P2A rest)
heavy chain: B1 heavy chain with S262N, V266P
notes: as for B1
B3: human IgG2 anti-mouse CD40 surface displayed antibody, Fc mutant S267W (antibody, name in EU numbering)
light chain (with the P2A rest): B1 light chain (with the P2A rest)
heavy chain: B1 heavy chain with S262W, V266P
notes: as for B1
B4: human IgG2 anti-mouse CD40 surface displayed antibody, Fc mutant P271A (antibody, name in EU numbering)
light chain (with the P2A rest): B1 light chain (with the P2A rest)
heavy chain: B1 heavy chain with V266A
notes: as for B1
B5: human IgG2 anti-mouse CD40 surface displayed antibody, Fc mutant P271G (antibody, name in EU numbering)
light chain (with the P2A rest): B1 light chain (with the P2A rest)
heavy chain: B1 heavy chain with V266G
notes: as for B1
B6: human IgG2 anti-mouse CD40 surface displayed antibody, Fc mutant L328W (antibody, name in EU numbering)
light chain (with the P2A rest): B1 light chain (with the P2A rest)
heavy chain: B1 heavy chain with V266P, L323W
notes: as for B1
B7: human IgG2 anti-mouse CD40 surface displayed antibody, Fc mutant P238Q/S267E (antibody, name in EU numbering)
light chain (with the P2A rest): B1 light chain (with the P2A rest)
heavy chain: B1 heavy chain with P233Q, S262E, V266P
notes: as for B1
B8: human IgG2 anti-mouse CD40 surface displayed antibody, Fc mutant P271G/I332L (antibody, name in EU numbering)
light chain (with the P2A rest): B1 light chain (with the P2A rest)
heavy chain: B1 heavy chain with V266G, I327L
notes: as for B1
B9: human IgG2 anti-mouse CD40 surface displayed antibody, Fc mutant L328A (antibody, name in EU numbering)
light chain (with the P2A rest): B1 light chain (with the P2A rest)
heavy chain: B1 heavy chain with V266P, L323A
notes: as for B1
B10: human IgG2 anti-mouse CD40 surface displayed antibody, Fc mutant L328P (antibody, name in EU numbering)
light chain (with the P2A rest): B1 light chain (with the P2A rest)
heavy chain: B1 heavy chain with V266P, L323P
notes: as for B1
B11: human IgG2 anti-mouse CD40 surface displayed antibody, Fc mutant S267E (antibody, name in EU numbering)
light chain (with the P2A rest): B1 light chain (with the P2A rest)
heavy chain: B1 heavy chain with S262E, V266P
notes: as for B1
B12: human IgG2 anti-mouse CD40 surface displayed antibody, Fc mutant S267E/P329R (antibody, name in EU numbering)
light chain (with the P2A rest): B1 light chain (with the P2A rest)
heavy chain: B1 heavy chain with S262E, V266P, P324R
notes: as for B1
B13: human IgG2 anti-mouse CD40 surface displayed antibody, S267E/S298G (antibody, name in EU numbering)
light chain (with the P2A rest): B1 light chain (with the P2A rest)
heavy chain: B1 heavy chain with S262E, V266P, S293G
notes: As m1 with the Fc mutations
B14: human IgG2 anti-mouse CD40 surface displayed antibody, P233G/S267E/S298G (antibody)
light chain (with the P2A rest): B1 light chain (with the P2A rest)
heavy: B1 heavy chain with P229G, S262E, V266P, S293G
notes: As m1 with the Fc mutations; copies: 2 + 2
B15: human IgG2 anti-mouse CD40 surface displayed antibody, L328W (antibody, name in EU numbering)
light chain (with the P2A rest): B1 light chain (with the P2A rest)
heavy chain: B1 heavy chain with V266P, L323W
notes: As m1 with the Fc mutation
B16: human IgG2 anti-mouse CD40 surface displayed antibody, P233G/S267E (antibody)
light chain (with the P2A rest): B1 light chain (with the P2A rest)
heavy: B1 heavy chain with P229G, S262E, V266P
notes: as for B14

What follows are binders tested against T1, Biotin-FcγRIIB (human, UniProt P31994 43-217, limits assumed, biotin-labelled) (assay: magnetic sorting on biotin-FcγRIIB with unlabelled activating FcγRs, NGS; Library2).
T1 construct: Bought, biotin-labelled; used at 1 µg/ml for staining and sorting; also called human FcγRIIB; CD32b
T1 sequence (looked up): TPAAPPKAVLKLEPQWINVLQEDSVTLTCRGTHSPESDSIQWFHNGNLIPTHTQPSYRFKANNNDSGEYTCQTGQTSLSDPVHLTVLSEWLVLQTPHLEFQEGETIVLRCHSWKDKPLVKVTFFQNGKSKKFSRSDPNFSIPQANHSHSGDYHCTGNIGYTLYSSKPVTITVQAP
Method: (§1) 3T3 cells were collected by trypsin digestion, and a single cell suspension was prepared. […] The cells were incubated for 15 minutes on ice and then washed twice with MACS buffer and re-suspended in 100 μl MACS buffer. Twenty-five μl anti-Biotin magnetic beads were added, and the cells were incubated for 15 minutes on ice and then washed once with MACS buffer and re-suspended to 500 μl, and added to the LS column put in the magnetic field. The effluent was collected, washed with 3 mL of MACS buffer and collected; The LS column was then removed out of the magnetic field, and 5 mL of MACS buffer was used to rapidly elute the remaining cells from the sorting column to collect positive cells, which are the high I/A ratio cells.
(§2) The high-FcγRIIB-affinity cells obtained from the above flow cytometry sorting are further sorted by magnetic-activated sorting. The cells are incubated with the mixture of Biotin-labeled FcγRIIB and non-labeled activating FcγRs, and then the labeled cells are sorted by anti-Biotin magnetic beads. The enrichment ratios after sorting relative to before sorting are analyzed by NGS.

Row | Binder | Enrichment factor (percentage after sorting/percentage before sorting) | Increased factor (mutation enrichment factor/wild-type enrichment factor) | Percentage after sorting/unbinding percentage | Percentage before sorting/unbinding percentage
1 | B1 | 3.52 | 4.24 | 1090 | 311
2 | B2 | 2.91 | 3.51 |  | 
3 | B3 | 1.86 | 2.25 | 52.5 | 28.2
4 | B4 | 2.77 | 3.33 | 71.2 | 25.7

What follows are binders tested against T1, Biotin-FcγRIIB (assay: magnetic sorting on biotin-FcγRIIB with unlabelled activating FcγRs, NGS; LibraryMix #4).
Method: as §1, §2

Row | Binder | Enrichment factor (percentage after sorting/percentage before sorting) | Increased factor (mutation enrichment factor/wild-type enrichment factor) | Percentage after sorting/unbinding percentage | Percentage before sorting/unbinding percentage
5 | B5 | 3.66 | 3.89 | 19 | 5.18
6 | B6 | 4.26 | 4.53 |  | 
7 | B7 | 3.7 | 3.93 | 4.36 | 1.18
8 | B8 | 2.82 | 3 | 16 | 5.66
9 | B9 | 3.21 | 3.41 |  | 
10 | B10 | 2.16 | 2.3 | 29.6 | 13.7
11 | B11 | 2.86 | 3.04 | 52.6 | 18.4
12 | B12 | 4.85 | 5.16 | 6.17 | 1.27

The binders below were run against T2, Biotin-FcγRIIB (human, UniProt P31994 43-217, limits assumed, biotin label) (assay: NGS of 3T3 display library IgG2_C01 flow-sorted for FcγRIIB binding).
T2 construct: Soluble labelled protein used to stain and sort the display cells; also called human FcγRIIB; CD32b
T2 sequence (looked up): T1 sequence (looked up)
Description: Then flow cytometry is used for sorting the cells with high affinity to FcγRIIB for two to three rounds. […] IgG2_C01 is a combined mutation (Type I) library having at most 1 mutation in each of the four regions of P233-V240, V266-P271, S298-T299, and G327-I332; IgG2_C02 is a cell library made by combining the combined mutation (Type II) libraries of four regions of P233-V240, V266-P271, S298-T299 and G327-I332 together and transferring it into 3T3 cells.

Row | Binder | enrichment factor, percentage after 1st sorting/percentage before sorting [ratio] | enrichment factor, percentage after 2nd sorting/percentage after 1st sorting [ratio] | enrichment factor, percentage after 2nd sorting/percentage before sorting [ratio] | increased factor, mutant enrichment factor/wild-type enrichment factor [ratio] | percentage after 1st sorting [%] | percentage after 2nd sorting [%]
13 | B13 | 9.16 | 19.2 | 176 | 207 | 0.01 | 0.25
14 | B14 | 7.13 | 38.5 | 274 | 323 | 0.01 | 0.2
15 | B15 | 1.75 | 4.26 | 7.46 | 8.78 | 0.25 | 1.05
16 | B16 | 3.31 | 5.47 | 18.1 | 21.3 | 0.01 | 0.05

These binders were tested against T1, Biotin-FcγRIIB (assay: FACS sorting of displayed Fc library on biotin-FcγRIIB, NGS).

Row | Binder | Increased factor b Site 1 (point mutation/wild-type) | Increased factor b Site 2 (point mutation/wild-type)
17 | B5 | 4.7 | 4.7
18 | B1 |  | 0.7
19 | B11 | 28.5 | 
20 | B4 | 0.1 | 

Reference: patent US20230220042A1 (SHANGHAI JIAO TONG UNIVERSITY SCHOOL OF MEDICINE, published 2023)
